Measurements taken from publication PMC314469, “Protein Interaction Networks by Proteome Peptide Scanning” (PLoS Biology, 2004).

T1: Boi1 SH3 (BOI1_YEAST), P38041
T1 chain: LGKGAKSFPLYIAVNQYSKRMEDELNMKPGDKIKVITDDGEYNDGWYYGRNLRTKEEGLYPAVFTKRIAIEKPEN

T2: Boi2 SH3 (BOI2_YEAST), P39969
T2 chain: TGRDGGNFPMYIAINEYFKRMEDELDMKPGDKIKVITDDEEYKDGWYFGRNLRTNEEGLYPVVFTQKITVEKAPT

T3: Myo5 SH3 (MYO5_YEAST), Q04439
T3 chain: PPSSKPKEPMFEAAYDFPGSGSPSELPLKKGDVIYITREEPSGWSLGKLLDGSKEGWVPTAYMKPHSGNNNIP

T4: Rvs167 SH3 (RV167_YEAST), P39743
T4 chain: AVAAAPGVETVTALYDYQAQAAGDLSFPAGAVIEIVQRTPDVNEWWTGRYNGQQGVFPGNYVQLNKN

T5: Yfr024 SH3 (LSB3_YEAST), P43603
T5 chain: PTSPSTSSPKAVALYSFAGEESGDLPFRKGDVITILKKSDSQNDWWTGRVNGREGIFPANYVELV

T6: Yhr016c SH3 (YSC84_YEAST), P32793
T6 chain: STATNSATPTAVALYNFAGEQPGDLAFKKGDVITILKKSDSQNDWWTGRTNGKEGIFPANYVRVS


Legend:
Test in all cases: SPOT array
[1] = target: T1, Boi1 SH3 (BOI1_YEAST), P38041
[2] = target: T2, Boi2 SH3 (BOI2_YEAST), P39969
[3] = target: T3, Myo5 SH3 (MYO5_YEAST), Q04439
[4] = target: T4, Rvs167 SH3 (RV167_YEAST), P39743
[5] = target: Sho1 SH3 (SHO1_YEAST), P40073
Chain of Sho1 SH3 (SHO1_YEAST), P40073 (P40073 295-366): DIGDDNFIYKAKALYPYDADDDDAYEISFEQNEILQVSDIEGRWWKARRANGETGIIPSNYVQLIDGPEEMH

[6] = target: T5, Yfr024 SH3 (LSB3_YEAST), P43603
[7] = target: T6, Yhr016c SH3 (YSC84_YEAST), P32793

Binder | normalised SPOT signal, Boehringer light units (BLU); mean over the file's lines of this peptide [1] | normalised SPOT signal, Boehringer light units (BLU); mean over the file's lines of this peptide [2] | normalised SPOT signal, Boehringer light units (BLU); mean over the file's lines of this peptide [3] | normalised SPOT signal, Boehringer light units (BLU); mean over the file's lines of this peptide [4] | normalised SPOT signal, Boehringer light units (BLU); mean over the file's lines of this peptide [5] | normalised SPOT signal, Boehringer light units (BLU); mean over the file's lines of this peptide [6] | normalised SPOT signal, Boehringer light units (BLU); mean over the file's lines of this peptide [7]
DLQKKYEPSPPATH [YCR069W 34-47] | 114 | 2.8 | 225 | 40.7 | 32.6 | 0 | 37.1
DRKNRAPPQRPRFN [YER131W 91-104] | 4240 | 24.1 | 2430 | 332 | 134 | 3740 | 162
DKIFKTDPNEPAND [YDL174C 572-585] | 66.5 | 26.3 | 99.1 | 47.5 | 16.7 | 0 | 14.1
DKFIKLIPMRPVLI [YDR479C 286-299] | 117 | 0.3 | 253 | 39 | 112 | 1380 | 95.2
DKKKKKYPRKPKKN [YDR485C 332-345] | 223 | 0 | 532 | 66.5 | 114 | 245 | 15.7

Results, then the binder that gave them:

normalised SPOT signal, Boehringer light units (BLU); mean over the file's lines of this peptide [1] | normalised SPOT signal, Boehringer light units (BLU); mean over the file's lines of this peptide [2] | normalised SPOT signal, Boehringer light units (BLU); mean over the file's lines of this peptide [3] | normalised SPOT signal, Boehringer light units (BLU); mean over the file's lines of this peptide [4] | normalised SPOT signal, Boehringer light units (BLU); mean over the file's lines of this peptide [5] | normalised SPOT signal, Boehringer light units (BLU); mean over the file's lines of this peptide [6] | normalised SPOT signal, Boehringer light units (BLU); mean over the file's lines of this peptide [7] | Binder
106 | 18.1 | 47.5 | 682 | 12000 | 12300 | 23200 | DQLNRLLPNLPEEE [YJR090C 138-151]
17.2 | 26 | 179 | 25.3 | 32.3 | 0 | 16.3 | DNELKDEPEPPNLI [YGR093W 206-219]
1240 | 10.2 | 135 | 43.8 | 26.5 | 114 | 9.2 | DSVLRQKPDKPRPI [YMR032W 380-393]
164 | 21 | 186 | 27.7 | 4.2 | 16.5 | 14.6 | DLKKKYAPDPPITH [YNR028W 35-48]
0 | 25.2 | 192 | 55.1 | 397 | 39.2 | 36.7 | DPSDKSLPQQPFHK [YJR006W 304-317]
804 | 16.3 | 226 | 154 | 237 | 136 | 37.2 | DRLSKIKPFLPQSI [YLR247C 271-284]
2880 | 26.3 | 250 | 177 | 1070 | 790 | 154 | DLDWRKIPFLPKEI [YLR427W 487-500]
352 | 18.8 | 250 | 41.9 | 35 | 156 | 19.3 | DLSLRYAPNLPRVI [YLL048C 1385-1398]
